In paper PMC7026633:

Target: Flag-tagged phosphor-mutant (AA: S1310A, S1379A) full-length human Tet3 (lentiviral) (human) (UniProt O43151)
Assay: co-IP; Tet3 KO mouse ESCs stably expressing Flag-tagged Wt or AA human Tet3; lysate in TBST buffer (50 mM Tris-HCl pH 7.4, 150 mM NaCl, 1 mM EDTA, 1% Triton X-100); IP overnight with anti-Flag M2 affinity gel or mouse IgG agarose, washed four times with TBST; blot for FLAG and H2A.Z

fold change of H2A.Z pulled down, against wild-type Tet3: 2 fold
Substance: histone variant H2A.Z (endogenous, mouse ESCs) (from UniProt P0C0S6 1-128) (natural protein)
